Laboratory results reported in patent KR20170021349A, “다양한 질병의 치료를 위한 jnk 신호 전달 경로의 세포 투과성 펩타이드 억제자의 새로운 용도” (자이겐 인플라메이션 리미티드, priority 2014, dated 2017).
Several values for one entry are separate records, joined by “and”; a condition that tells them apart may be missing. Identical values can stand only once.

Legend:
[1] = tested on: HCT 116 tumours in SCID mice; test: Orthotopic HCT 116 human colon tumour; format: in vivo, mouse
[2] = tested on: Mapk14f/f and Mapk14Δli* mice; test: DEN-induced hepatocyte proliferation (Ki67) in Mapk14-deficient mice; format: in vivo, mouse; conditions: 20 mg/kg i.p. before DEN, 48 h
[3] = Stability of stock and diluted solutions; format: physicochemical
Brown Norway rats = test: STZ diabetic retinopathy prevention, intravitreal, ERG; format: in vivo, rat

NH2-DQSRPVQPFLNLTTPRKPRPPRRRQRRKKRG-COOH (H-DQSRPVQPFLNLTTPRKPRPPRRRQRRKKRG-OH; also: D-amino acids (positions not given here)) [XG-102]
mice with more than 1 liver metastasis ([1]; 0.1 mg/kg PO): 25%
mean body weight change at D-2 ([1]; 0.1 mg/kg/adm PO): 7.1±4.6%
number of mice without liver metastasis ([1]; 1 mg/kg PO): 가장 높았으며
mice with more than 1 liver metastasis ([1]; 1 mg/kg PO, vehicle 40%): 12.5%
mice with more than 1 liver metastasis ([1]; 1 mg/kg SC): 25%
mortality D0-D9 (surgical complications) in the four treated groups, as listed ([1]; PO/SC 0.1 and 1 mg/kg Q1Dx14, vehicle 33%, group order not given): 40% and 34% and 47%
tolerance of treatment ([1]; Q1Dx14): 내약(tolerated)되었음
hyperproliferation of Mapk14-/- hepatocytes (Ki67) [2]: 되돌린다
stability of diluted formulations for animal dosing ([3]; 2-4°C): 24 시간
stability of stock solution (1 mM) ([3]; about -80°C): 3 개월
stability of stock solution (10 mM in water) ([3]; about -80°C): ≥ 100 일
stability of diluted formulations for animal dosing ([3]; room temperature): 24 시간
stability in saline ([3]; room temperature, 10 μg/ml - 50 mg/ml): 8 시간
OP#1 scotopic single flash 0dB amplitude (Brown Norway rats; 0.2 μg/eye IVT d1,8,15, day 6): 49 μV
OP#2 scotopic single flash 0dB amplitude (Brown Norway rats; 0.2 μg/eye, day 6): 98 μV
OP#3 scotopic single flash 0dB amplitude (Brown Norway rats; 0.2 μg/eye, day 6): 219 μV
OP#4 scotopic single flash 0dB amplitude (Brown Norway rats; 0.2 μg/eye, day 6): 147 μV
photopic 1Hz flicker A-wave amplitude (Brown Norway rats; 0.2 μg/eye, day 6): -3 μV
photopic 1Hz flicker B-wave amplitude (Brown Norway rats; 0.2 μg/eye, day 6): 63 μV
photopic 29Hz flicker B-wave amplitude (Brown Norway rats; 0.2 μg/eye, day 6): 9 μV
scotopic single flash 0dB A-wave amplitude (Brown Norway rats; 0.2 μg/eye, day 6): -209 μV
scotopic single flash 0dB B-wave amplitude (Brown Norway rats; 0.2 μg/eye, day 6): 421 μV
scotopic single flash -10dB A-wave amplitude (Brown Norway rats; 0.2 μg/eye, day 6): -151 μV
scotopic single flash -30dB B-wave amplitude (Brown Norway rats; 0.2 μg/eye, day 6): 269 μV
OP#1 scotopic single flash 0dB amplitude (Brown Norway rats; 0.2 μg/eye, day 13): 37 μV
OP#2 scotopic single flash 0dB amplitude (Brown Norway rats; 0.2 μg/eye, day 13): 63 μV
OP#3 scotopic single flash 0dB amplitude (Brown Norway rats; 0.2 μg/eye, day 13): 165 μV
OP#4 scotopic single flash 0dB amplitude (Brown Norway rats; 0.2 μg/eye, day 13): 129 μV
photopic 1Hz flicker A-wave amplitude (Brown Norway rats; 0.2 μg/eye, day 13): -4 μV
photopic 1Hz flicker B-wave amplitude (Brown Norway rats; 0.2 μg/eye, day 13): 71 μV
photopic 29Hz flicker B-wave amplitude (Brown Norway rats; 0.2 μg/eye, day 13): 14 μV
scotopic single flash 0dB A-wave amplitude (Brown Norway rats; 0.2 μg/eye, day 13): -203 μV
scotopic single flash 0dB B-wave amplitude (Brown Norway rats; 0.2 μg/eye, day 13): 442 μV
scotopic single flash -10dB A-wave amplitude (Brown Norway rats; 0.2 μg/eye, day 13): -128 μV
scotopic single flash -30dB B-wave amplitude (Brown Norway rats; 0.2 μg/eye, day 13): 270 μV
OP#1 scotopic single flash 0dB amplitude (Brown Norway rats; 0.2 μg/eye, day 20): 36 μV
OP#2 scotopic single flash 0dB amplitude (Brown Norway rats; 0.2 μg/eye, day 20): 70 μV
OP#3 scotopic single flash 0dB amplitude (Brown Norway rats; 0.2 μg/eye, day 20): 164 μV
OP#4 scotopic single flash 0dB amplitude (Brown Norway rats; 0.2 μg/eye, day 20): 116 μV
photopic 1Hz flicker A-wave amplitude (Brown Norway rats; 0.2 μg/eye, day 20): -2 μV
photopic 1Hz flicker B-wave amplitude (Brown Norway rats; 0.2 μg/eye, day 20): 70 μV
photopic 29Hz flicker B-wave amplitude (Brown Norway rats; 0.2 μg/eye, day 20): 10 μV
scotopic single flash 0dB A-wave amplitude (Brown Norway rats; 0.2 μg/eye, day 20): -198 μV
scotopic single flash 0dB B-wave amplitude (Brown Norway rats; 0.2 μg/eye, day 20): 433 μV
scotopic single flash -10dB A-wave amplitude (Brown Norway rats; 0.2 μg/eye, day 20): -129 μV
scotopic single flash -30dB B-wave amplitude (Brown Norway rats; 0.2 μg/eye, day 20): 240 μV
OP#1 scotopic single flash 0dB amplitude (Brown Norway rats; 2 μg/eye IVT d1,8,15, day 6): 40 μV
OP#2 scotopic single flash 0dB amplitude (Brown Norway rats; 2 μg/eye, day 6): 93 μV
OP#3 scotopic single flash 0dB amplitude (Brown Norway rats; 2 μg/eye, day 6): 239 μV
OP#4 scotopic single flash 0dB amplitude (Brown Norway rats; 2 μg/eye, day 6): 182 μV
photopic 1Hz flicker A-wave amplitude (Brown Norway rats; 2 μg/eye, day 6): -3 μV
photopic 1Hz flicker B-wave amplitude (Brown Norway rats; 2 μg/eye, day 6): 69 μV
photopic 29Hz flicker B-wave amplitude (Brown Norway rats; 2 μg/eye, day 6): 11 μV
scotopic single flash 0dB A-wave amplitude (Brown Norway rats; 2 μg/eye, day 6): -205 μV
scotopic single flash 0dB B-wave amplitude (Brown Norway rats; 2 μg/eye, day 6): 383 μV
scotopic single flash -10dB A-wave amplitude (Brown Norway rats; 2 μg/eye, day 6): -124 μV
